From paper PMC8873214, “RIOX1-demethylated cGAS regulates ionizing radiation-elicited DNA repair” (Bone Research, 2022) come the findings set out here.

In this assay the target is T1, purified K491me-bearing Flag-cGAS (mouse, UniProt Q8C6L5 1-507, monomethyl-lysine at K491).
T1 construct: cyclic GMP-AMP synthase (cGAS), mouse (K491 is the mouse numbering); also called K491me-bearing cGAS; purified Flag-cGAS protein methylated by His-SET7; source: bacterially purified, then methylated in vitro with purified His-SET7
T1 sequence (Q8C6L5 whole entry): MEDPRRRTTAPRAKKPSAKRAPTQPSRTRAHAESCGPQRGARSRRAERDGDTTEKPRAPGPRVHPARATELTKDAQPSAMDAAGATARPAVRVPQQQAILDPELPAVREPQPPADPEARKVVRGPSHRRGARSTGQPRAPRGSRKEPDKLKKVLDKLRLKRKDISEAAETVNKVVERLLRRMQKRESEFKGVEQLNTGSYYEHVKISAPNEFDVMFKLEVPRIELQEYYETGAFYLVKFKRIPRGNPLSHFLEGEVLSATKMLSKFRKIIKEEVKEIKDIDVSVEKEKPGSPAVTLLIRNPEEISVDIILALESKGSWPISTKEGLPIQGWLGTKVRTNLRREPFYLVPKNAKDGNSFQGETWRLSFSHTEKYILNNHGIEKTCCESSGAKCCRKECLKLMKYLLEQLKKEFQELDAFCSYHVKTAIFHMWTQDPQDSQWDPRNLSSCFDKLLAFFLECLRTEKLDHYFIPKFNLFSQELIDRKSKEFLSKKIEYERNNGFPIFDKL
Kind of assay: pull-down; purified Flag-cGAS methylated in vitro by purified His-SET7, incubated with purified SGF29, then with biotin-PAR; streptavidin pulldown, immunoblot; binding of SGF29 read from the loss of PAR-bound cGAS. The settings on record: both partners purified. In general terms: A western blot detects proteins with antibodies after separation by electrophoresis.

B1: purified His-SGF29 protein (natural protein, mouse, UniProt Q9DA08 1-293, looked up)
chain: MALVSADSRIAELLTELHQLIKQTQEERSRSEHNLVNIQKTHERMQTENKISPYYRTKLRGLYTTAKTDAEAECNILRKALDKIAEIKSLLEERRIAAKIAGLYNDSEPPRKTMRRGVLMTLLQQSAMTLPLWIGKPGDKPPPLCGAIPASGDYVAKPGDKVAARVKAVEGDEQWILAEVVSYSHATNKYEVDDIDEEGKERHTLSRRRIIPLPQWKANPETDPEALFQKEQLVLALYPQTTCFYRALIHTPPQRPQDDYSVLFEDTSYADGYSPPLNVAQRYVVACKEPKKK
notes: SAGA complex-associated factor 29 (SGF29); mouse and human SGF29 were cloned; also called purified WT SGF29 protein; source: E. coli BL21(DE3), purified
Regarding B1, the binding result was “binds”.
